{
  "source": "paper PMC8635974",
  "target": "M3R-YFP (muscarinic acetylcholine receptor M3 with YFP fused C-terminally) (UniProt P20309)",
  "sequence (P20309 whole entry, the tested form may be a part)": "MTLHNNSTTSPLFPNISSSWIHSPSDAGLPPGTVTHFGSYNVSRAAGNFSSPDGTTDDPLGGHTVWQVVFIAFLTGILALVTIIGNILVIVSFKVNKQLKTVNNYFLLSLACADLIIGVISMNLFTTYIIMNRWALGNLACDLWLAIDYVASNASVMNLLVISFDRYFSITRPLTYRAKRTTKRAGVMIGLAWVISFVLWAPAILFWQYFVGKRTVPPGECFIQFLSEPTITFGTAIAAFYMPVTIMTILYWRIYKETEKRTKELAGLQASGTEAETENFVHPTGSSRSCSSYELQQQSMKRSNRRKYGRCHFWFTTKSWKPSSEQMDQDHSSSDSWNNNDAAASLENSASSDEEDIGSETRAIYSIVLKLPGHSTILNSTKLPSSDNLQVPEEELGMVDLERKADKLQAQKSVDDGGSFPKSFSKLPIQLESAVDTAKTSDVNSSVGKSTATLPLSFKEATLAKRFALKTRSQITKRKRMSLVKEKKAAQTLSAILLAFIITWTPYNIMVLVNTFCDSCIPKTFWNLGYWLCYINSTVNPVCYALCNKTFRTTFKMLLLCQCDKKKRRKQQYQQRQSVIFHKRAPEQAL",
  "assay": "FRET or BRET; single-cell FRET in HEK293T cells transfected with M3R-YFP, Gαq, Gβ1 and mTurquoise2-Gγ2; laminar superfusion with buffer (137 mM NaCl, 5.4 mM KCl, 2 mM CaCl2, 1 mM MgCl2, 10 mM HEPES, pH 7.3) or agonist (ACh 30 µM, Metha, Fur, Are, Guva, Pilo, Mda one after the other in the same cell); amplitudes normalized to ACh; room temperature",
  "data": [
    {"substance": "Gq protein (Gαq, Gβ1 and mTurquoise2-Gγ2) (from UniProt P50148 1-359; P62873 1-340; P59768 1-71) (complex; other documents disagree on this pair)", "values": [
      {"measurement": "FRET amplitude with Are as agonist, relative to ACh (% of the ACh signal)", "value": 20},
      {"measurement": "FRET amplitude with Fur as agonist, relative to ACh (% of the ACh signal)", "value": 60},
      {"measurement": "FRET amplitude with Guva as agonist, relative to ACh (% of the ACh signal)", "value": 20},
      {"measurement": "FRET amplitude with Mda as agonist, relative to ACh (% of the ACh signal)", "value": 8},
      {"measurement": "FRET amplitude with Metha as agonist, relative to ACh (% of the ACh signal)", "value": 60},
      {"measurement": "FRET amplitude with Pilo as agonist, relative to ACh (% of the ACh signal)", "value": 8}
    ]}
  ]
}
